Experimental data from US20180334496A1.

Target: Recombinant His-tagged FcγRIIb (UniProt P31994)
Experiment: ELISA, antibody coated at 2 uM, His-tagged FcγRIIb titrated 1:3 from 2 uM, HRP anti-His; the concentration is that of the receptor

Recombinant His-tagged FcγRIIb, sequence (P31994 46-217 limits assumed): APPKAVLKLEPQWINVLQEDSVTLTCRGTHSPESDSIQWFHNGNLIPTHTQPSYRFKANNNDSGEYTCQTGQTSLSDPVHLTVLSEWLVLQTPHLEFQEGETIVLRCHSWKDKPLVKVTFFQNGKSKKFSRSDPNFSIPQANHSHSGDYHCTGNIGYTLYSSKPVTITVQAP

EC50 (read off the curve): 70 nM
Substance: Avastin (antibody)
